{
  "source": "paper PMC9331509",
  "about": "“Insights into Domain Organization and Regulatory Mechanism of Cystathionine Beta-Synthase from Toxoplasma gondii” (International Journal of Molecular Sciences, 2022)",
  "key": {"full-length TgCBS": {"target": "T1, full-length TgCBS (Toxoplasma gondii, UniProt A0A125YSJ9)", "T1 construct": "gene TGME49_259180; full-length, residues 1-514; N-terminal 6xHis tag; E. coli Rosetta (DE3); ~57 kDa subunit; mainly dimer", "T1 sequence (A0A125YSJ9 1-514)": "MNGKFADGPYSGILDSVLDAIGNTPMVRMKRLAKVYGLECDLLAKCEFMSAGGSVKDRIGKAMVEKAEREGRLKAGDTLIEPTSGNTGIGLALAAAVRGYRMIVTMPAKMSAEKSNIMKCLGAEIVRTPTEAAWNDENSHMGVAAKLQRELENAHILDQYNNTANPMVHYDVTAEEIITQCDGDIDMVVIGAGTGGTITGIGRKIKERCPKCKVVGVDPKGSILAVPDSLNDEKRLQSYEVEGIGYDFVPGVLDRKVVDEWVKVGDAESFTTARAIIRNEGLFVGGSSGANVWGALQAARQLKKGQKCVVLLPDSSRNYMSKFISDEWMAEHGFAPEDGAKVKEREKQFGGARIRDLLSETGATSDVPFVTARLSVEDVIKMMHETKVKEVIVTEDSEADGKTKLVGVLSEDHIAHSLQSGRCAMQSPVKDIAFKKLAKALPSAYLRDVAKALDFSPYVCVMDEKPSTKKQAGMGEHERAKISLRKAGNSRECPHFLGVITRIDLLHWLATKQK", "assay": "continuous CBL-LDH coupled assay", "assay_type": "biochemical", "conditions": "saturating L-Ser and L-Hcys; pH 9, 37 °C; activity after heat pre-treatment or trypsinolysis"}, "TgCBS R353*": {"target": "T2, TgCBS R353* (Toxoplasma gondii, UniProt A0A125YSJ9)", "T2 construct": "gene TGME49_259180; C-terminally truncated (stop codon at R353; residues 353-514, Bateman module, removed), residues 1-352; N-terminal 6xHis tag; pET21a, E. coli Rosetta (DE3); 39 kDa; mainly dimer", "assay": "UV-Vis absorption ([…] nm internal aldimine); PLP content by NaOH, […] nm", "assay_type": "binding", "conditions": "stoichiometry; covalent internal aldimine, as purified"}, "[1]": {"target": "Proteolysed full-length TgCBS (39 kDa trypsin-resistant core) (Toxoplasma gondii)", "assay": "SEC; 250 ug TgCBS incubated with trypsin 1:200 (w/w) for 120 min, stopped with a two-fold weight excess of soybean trypsin inhibitor, loaded on Superdex 200 10/300 GL; TgCBS R353* at 0.5 mg/mL run for comparison"}, "[2]": {"target": "the molecule itself", "assay": "native gel or EMSA; native PAGE at 8, 9, 10 and 12% polyacrylamide, 10 ug/lane, Coomassie staining, Ferguson plot analysis with molecular mass standards"}, "[3]": {"target": "the molecule itself", "assay": "SEC; Superdex 200 10/300 GL, protein at 1 mg/mL, 20 mM sodium phosphate buffer pH 8.5, 150 mM NaCl, 0.1 mM DTT; calibrated with standard proteins"}},
  "note": "Values joined by “and” are separate entries in the source; they are usually repeats but may differ in a detail not shown here. Identical values can stand only once. Marks after values point to notes of the source that are not given here.",
  "data": [
    {"molecule": "N[C@@H](CCS)C(=O)O", "note": "[L-Hcys]", "values": [
      {"measurement": "continuous CBL-LDH coupled assay", "setting": "full-length TgCBS", "result": "at saturating concentration of L-Ser and L-Hcys in the canonical reaction"}
    ]},
    {"molecule": "N[C@@H](CO)C(=O)O", "note": "[L-Ser]", "values": [
      {"measurement": "continuous CBL-LDH coupled assay", "setting": "full-length TgCBS", "result": "full-length TgCBS (solid triangles) and TgCBS R353* (open circles) on their steady-state initial velocity"}
    ]},
    {"molecule": "Cc1ncc(COP(=O)(O)O)c(C=O)c1O", "note": "[PLP]", "values": [
      {"measurement": "PLP per monomer", "setting": "TgCBS R353*", "result": "0.9 ± 0.1", "unit": "mol/mol"}
    ]},
    {"molecule": "Proteolysed full-length TgCBS (39 kDa trypsin-resistant core) (from UniProt A0A125YSJ9 1-514) (domain or fragment)", "values": [
      {"measurement": "stoichiometry N", "setting": "[1]", "result": 2}
    ]},
    {"molecule": "TgCBS R353* (TgCBS lacking the C-terminal Bateman module) (domain or fragment, Toxoplasma gondii, UniProt A0A125YSJ9 1-352, looked up, Cystathionine beta-synthase (TgCBS), Toxoplasma gondii, residues 1-352 (catalytic domain and interdomain linker); 39 kDa subunit; made by site-directed mutagenesis on pET21a-TgCBS; also called C-terminally truncated TgCBS; truncated TgCBS; source: E. coli Rosetta (DE3), purified (Ni-sepharose, as the wild-type enzyme); not shown: His6, N-terminal, kept) MNGKFADGPYSGILDSVLDAIGNTPMVRMKRLAKVYGLECDLLAKCEFMSAGGSVKDRIGKAMVEKAEREGRLKAGDTLIEPTSGNTGIGLALAAAVRGYRMIVTMPAKMSAEKSNIMKCLGAEIVRTPTEAAWNDENSHMGVAAKLQRELENAHILDQYNNTANPMVHYDVTAEEIITQCDGDIDMVVIGAGTGGTITGIGRKIKERCPKCKVVGVDPKGSILAVPDSLNDEKRLQSYEVEGIGYDFVPGVLDRKVVDEWVKVGDAESFTTARAIIRNEGLFVGGSSGANVWGALQAARQLKKGQKCVVLLPDSSRNYMSKFISDEWMAEHGFAPEDGAKVKEREKQFGGA", "values": [
      {"measurement": "stoichiometry N", "setting": "[2]", "result": "~4 and ~2"},
      {"measurement": "stoichiometry N", "setting": "[3]", "result": "2 and 4"}
    ]},
    {"molecule": "Full-length cystathionine beta-synthase from Toxoplasma gondii (enzyme, UniProt A0A125YSJ9 1-514, looked up, the cited crystal structure PDB 6XWL is of a construct lacking an internal loop (TgCBS Δ466-491); PLP-dependent enzyme; also called TgCBS; full-length TgCBS; source: E. coli Rosetta (DE3), purified (Ni-sepharose); not shown: His6, N-terminal, kept) MNGKFADGPYSGILDSVLDAIGNTPMVRMKRLAKVYGLECDLLAKCEFMSAGGSVKDRIGKAMVEKAEREGRLKAGDTLIEPTSGNTGIGLALAAAVRGYRMIVTMPAKMSAEKSNIMKCLGAEIVRTPTEAAWNDENSHMGVAAKLQRELENAHILDQYNNTANPMVHYDVTAEEIITQCDGDIDMVVIGAGTGGTITGIGRKIKERCPKCKVVGVDPKGSILAVPDSLNDEKRLQSYEVEGIGYDFVPGVLDRKVVDEWVKVGDAESFTTARAIIRNEGLFVGGSSGANVWGALQAARQLKKGQKCVVLLPDSSRNYMSKFISDEWMAEHGFAPEDGAKVKEREKQFGGARIRDLLSETGATSDVPFVTARLSVEDVIKMMHETKVKEVIVTEDSEADGKTKLVGVLSEDHIAHSLQSGRCAMQSPVKDIAFKKLAKALPSAYLRDVAKALDFSPYVCVMDEKPSTKKQAGMGEHERAKISLRKAGNSRECPHFLGVITRIDLLHWLATKQK", "values": [
      {"measurement": "stoichiometry N", "setting": "[3]", "result": "2 and 4"}
    ]}
  ]
}
